Source: PMC4161306, “Regulation of Arabidopsis Flowering by the Histone Mark Readers MRG1/2 via Interaction with CONSTANS to Modulate FT Expression” (PLoS Genetics, 2014)

B1: MRG2: Arabidopsis Morf Related Gene group protein MRG2 (protein, UniProt Q4V3E2 1-327, looked up)
Protein MRG2: MGSPNAAAETDLTTDDFIGDTRRDSGSDTETNTDCDGEDLPLLLLPAPPGHFEEGERVLAKHSDCFYEAKVLKVEFKDNEWKYFVHYIGWNKSWDEWIRLDCLLKHSDENIEKQKEQGLKQQGIKSAMAWKVSKMKPRSPNVARGRKRKQDSVDTEKNVLPSDNLLSFNIPPALRKQLLDDFEFVTQMQKLVQLPRSPNVDGILKKYIDSQMKKHGRVTDSLEEILKGLRCYFDKALPVMLLYNNERKQYEESVSGGVSPSTVYGAEHLLRLFVKLPELLVHVNMAEETLKELQDNFVDILRFLRKNQSVLFVSTYKAVEEMEKKEG
B2: MRG2C: MRG domain of MRG2, cDNA 442–984 (protein)
chain: RKQDSVDTEKNVLPSDNLLSFNIPPALRKQLLDDFEFVTQMQKLVQLPRSPNVDGILKKYIDSQMKKHGRVTDSLEEILKGLRCYFDKALPVMLLYNNERKQYEESVSGGVSPSTVYGAEHLLRLFVKLPELLVHVNMAEETLKELQDNFVDILRFLRKNQSVLFVSTYKAVEEMEKKEG
modifications: left off: His tag, end not stated, kept
B3: MRG2N: chromodomain of MRG2, cDNA 1–369 (protein)
chain: MGSPNAAAETDLTTDDFIGDTRRDSGSDTETNTDCDGEDLPLLLLPAPPGHFEEGERVLAKHSDCFYEAKVLKVEFKDNEWKYFVHYIGWNKSWDEWIRLDCLLKHSDENIEKQKEQGLKQQG
modifications: left off: His tag, N-terminal, kept
B4: GST-fused CO: GST-fused CONSTANS protein purified from E. coli (protein)
chain: MLKQESNDIGSGENNRARPCDTCRSNACTVYCHADSAYLCMSCDAQVHSANRVASRHKRVRVCESCERAPAAFLCEADDASLCTACDSEVHSANPLARRHQRVPILPISGNSFSSMTTTHHQSEKTMTDPEKRLVVDQEEGEEGDKDAKEVASWLFPNSDKNNNNQNNGLLFSDEYLNLVDYNSSMDYKFTGEYSQHQQNCSVPQTSYGGDRVVPLKLEESRGHQCHNQQNFQFNIKYGSSGTHYNDNGSINHNAYISSMETGVVPESTACVTTASHPRTPKGTVEQQPDPASQMITVTQLSPMDREARVLRYREKRKTRKFEKTIRYASRKAYAEIRPRVNGRFAKREIEAEEQGFNTMLMYNTGYGIVPSF
modifications: left off: GST, end not stated, kept
notes: GST-fused CONSTANS protein purified from E. coli

What was measured:
[1] = system: CO; test: Bimolecular fluorescence complementation (BiFC) in tobacco leaf cells; type: cell-based, Arabidopsis; conditions: split YFP, Nicotiana benthamiana leaves, 2–3 days after infiltration, Figure 5C
Protocol: BiFC was performed as described by Sun et al.. For BiFC assays, MRG2C cDNA was amplified using primers MRG2-11/MRG2-12, and then cloned into pXY103 and pXY106 vectors. CO cDNA was amplified by primers CO-3/CO-4, and then cloned into a pXY104 vector. Leaves of 4- to 8-week-old Nicotiana benthamiana plants were co-infiltrated with Agrobacterium tumefaciens strain […] carrying transgene constructs. Localization of BiFC fluorescence was observed 2–3 days after infiltration using a confocal laser scanning microscope (LSM 710, ZEISS, Germany).

[2] = system: CO; test: Pull-down truncation analysis of MRG2 with GST-fused CO; type: binding, Arabidopsis; conditions: in vitro pull-down, Figure 5B
Protocol: (§1) MRG2 and MRG2C (442–984) cDNA were amplified with primers MRG2-1/MRG2-10 and MRG2-9/MRG2-10, respectively, and then cloned into pET-30a vector (Novagen, www.novagen.com). The resulting constructs and pET-30a-MRG2N were used for purification of His-tagged MRG2, MRG2C, and MRG2N proteins. CO cDNA was amplified using primers CO-1/CO-2, and then cloned into pGEX-4T-1 vector for purification of GST-fused CO proteins. Pulldown experiments were performed according to a previously described protocol.

[3] = system: MRG2; test: GST pull-down assay, His-tagged MRG2; type: binding, Arabidopsis; conditions: in vitro, purified proteins from E. coli, Figure 5B
Protocol: as §1

| Molecule | interaction with CO in vivo [1] | binding to CO [2] | pull-down of His-tagged MRG2 [3] |
| --- | --- | --- | --- |
| B1 | interacted in vivo | – | – |
| B2 | interacted in vivo | contributed to binding to CO | – |
| B3 | – | not | – |
| B4 | – | – | could pull-down MRG2 |
